B1: Pistol ribozyme (parent)
chain: GGGUCGUUGUUCCAUAAUCGCGUGGAUAUGGCACGCAAGUUUCUACCGGGCACCGUAAAUGUCCGACUGGAGCCGUUCGGGCGGCUAUAAACAGACCUCAGGCCCGAAGCGUGGCGGCACCUGCCGCCGGUGGUAAAAAAGAUCGGAAGAGCACACGUCU

Variants of: B1
Assay: aptazyme ON/OFF ratio, guanine; higher = stronger switching; co-transcriptional cleavage with and without guanine

Variant	aptazyme ON/OFF ratio
U7G G9C U10G U11A C12U C13U	1.23
U7G G9U U10A U11C C12U C13U	1.39
U7G G9U U10A U11C C12U C13G	1.27
U7G G9U U10A U11C C12U C13A	1.39
U7G G9C U11C C12U C13A	1.37
U7G G9C U11C C12U C13U	1.25
U7G G9C U11C C12U C13G	1.27
U7G G9U U10C C12A C13A	1.42
U7G G9U U10C C12A C13U	1.35
U7G G9U U10C C12A C13G	1.21
U7G G9U	2.19
U7G G9C U10A U11G	3.08
U7G G9C U10A U11G C12G C13U	1.12
U7G G9C U10A U11G C12G C13A	1.1
U7G G9C U10A U11G C12G C13G	1.08
U7G G9C U11A C12G C13A	1.2
U7G G9C U11A C12G C13U	1.36
U7G G9C U11A C12G C13G	1.23
U7G G9U U10A U11G C12U	1.4
U7G G9U U10A U11G C12A	1.13
U7G G9U U10A U11G C12G	1.26

Variant	aptazyme ON/OFF ratio
U7G G9C U10C U11G C12G C13G	1.08
U7G G9C U10C U11G C12G C13U	1.08
U7G G9C U10C U11G C12G C13A	1.09
U7G G9C U10G C12A C13G	1.11
U7G G9C U10G C12A C13U	1.25
U7G G9C U10G C12A C13A	1.23
U7G G9U U10C C12U C13U	1.34
U7G G9U U10C C12U C13G	1.31
U7G G9U U10C C12U C13A	1.38
U7G G9C U10C U11C C12U C13A	1.03
U7G G9C U10C U11C C12U C13U	1.11
U7G G9C U10C U11C C12U C13G	1.07
U7G G9C U10C U11A C12A C13G	1.15
U7G G9C U10C U11A C12A C13A	1.21
U7G G9C U10C U11A C12A C13U	1.25
U7G G9U U10A U11G C12U C13A	1.23
U7G G9U U10A U11G C12U C13G	1.12
U7G G9U U10A U11G C12U C13U	1.27
U7G G9C U11C C12G C13A	1.35
U7G G9C U11C C12G C13U	1.36
U7G G9C U11C C12G C13G	1.07

Variant	aptazyme ON/OFF ratio
U7G G9C U10G C12G C13A	1.28
U7G G9C U10G C12G C13U	1.31
U7G G9C U10G C12G C13G	1.18
U7G G9C U10G U11C C12A	1.69
U7G G9C U10G U11C C12U	1.28
U7G G9C U10G U11C C12G	1.32
U7G G9C U10A U11G C12G	1.41
U7G G9C U10A U11G C12A	1.15
U7G G9C U10A U11G C12U	1.43
U7G G9C U10G U11G C12U C13U	1.24
U7G G9C U10G U11G C12U C13G	1.1
U7G G9C U10G U11G C12U C13A	1.15
U7G G9C U10C U11C C13A	1.05
U7G G9C U10C U11C C13U	1.03
U7G G9C U10C U11C C13G	1.04
U7G G9U U10C U11C C12U C13U	1.29
U7G G9U U10C U11C C12U C13A	1.25
U7G G9U U10C U11C C12U C13G	1.23
U7G G9U U10C U11C C12G C13G	1.2
U7G G9U U10C U11C C12G C13U	1.31
U7G G9U U10C U11C C12G C13A	1.17

Variant	aptazyme ON/OFF ratio
U7G G9U U10C U11G C12G C13U	1.06
U7G G9U U10C U11G C12G C13A	1.13
U7G G9U U10C U11G C12G C13G	1.12
U7G G9U U10A U11C C12G C13A	1.22
U7G G9U U10A U11C C12G C13U	1.27
U7G G9U U10A U11C C12G C13G	1.04
U7G G9C U10G U11A C12G C13U	1.28
U7G G9C U10G U11A C12G C13G	1.18
U7G G9C U10G U11A C12G C13A	1.14
U7G G9C U10C C12G C13G	1.09
U7G G9C U10C C12G C13A	1.31
U7G G9C U10C C12G C13U	1.23
U7G G9U U10C U11C C13U	1.09
U7G G9U U10C U11C C13A	1.05
U7G G9U U10C U11C C13G	1.07
U7G G9C U10G C13G	1.23
U7G G9C U10G C13U	1.36
U7G G9C U10G C13A	1.41
U7G G9U U10C U11G C12G	1.25
U7G G9U U10C U11G C12A	1.13
U7G G9U U10C C12G	1.37

Source: the RNAGym collection of RNA variant scans (doi:10.1021/acssynbio.7b00057)
